Experimental data as given in publication PMC8441738 (MedComm, 2021).

Molecular target: recombinant SARS-CoV-2 RBD-Fc (Severe acute respiratory syndrome …, UniProt P0DTC2)
Test: ELISA; natural RBD-Fc immobilised on ELISA plates

Row | Binder | binding result
1 | MA1 monoclonal antibody (antibody, V domains shown, also called group I mAb; source: hybridoma cell line or transfection of linear expression cassettes) VH: QVQLKESGPGLVAPSQSLSITCTVSGFSLSDYSISWIRQPPGKGLEWLGVIWGGGSTYYNSALKSRLSISKDNSKSQVFLKMNSLQTDDTAMYYCAKHPLYYGSNSDGYYAMDYWGQGTSVTVSS VL: DIVMTQSHKFMSTSVGDRVSITCKASQDVGIVVAWYQQKPGQSPKLLIYWASTRHTGVPDRFTGSGSGTDFTLTISNVQSEDLADYFCQQYSSYPLTFGGGTKLEIK | binds
2 | MA5 monoclonal antibody (antibody, V domains shown, also called group IV mAb; source: hybridoma cell line or transfection of linear expression cassettes) VH: EVMLVESGGGLVKPGGSLKLSCAASGFMFSRYAMSWVRQTPEKRLEWVATISSGGSYTYYPDSVKGRFTMSRDNAKNTLYLQMSSLRSEDTAMYNCARHDGNYVDYAMDYWGQGTSVTVSS VL: QIVLTQSPAIMSASLGEEITLTCSASSSVSHMHWYQQKSGTSPKLLIYSTFNLASGVPSRFSGSGSGTFYSLTISSVEAEDAADYYCHQWSSWTFGGGTKLEIK | binds
